Assay results published in patent US20100256148A1, “USE OF CFMS INHIBITOR FOR TREATING OR PREVENTING BONE CANCER AND THE BONE LOSS AND BONE PAIN ASSOCIATED WITH BONE CANCER” (priority 2007, published 2010).

Target: T1, CSF-1R (Mus musculus, UniProt P09581)
T1 construct: from tissue; host or cells: mouse spleen, in vivo
T1 sequence (P09581 20-977): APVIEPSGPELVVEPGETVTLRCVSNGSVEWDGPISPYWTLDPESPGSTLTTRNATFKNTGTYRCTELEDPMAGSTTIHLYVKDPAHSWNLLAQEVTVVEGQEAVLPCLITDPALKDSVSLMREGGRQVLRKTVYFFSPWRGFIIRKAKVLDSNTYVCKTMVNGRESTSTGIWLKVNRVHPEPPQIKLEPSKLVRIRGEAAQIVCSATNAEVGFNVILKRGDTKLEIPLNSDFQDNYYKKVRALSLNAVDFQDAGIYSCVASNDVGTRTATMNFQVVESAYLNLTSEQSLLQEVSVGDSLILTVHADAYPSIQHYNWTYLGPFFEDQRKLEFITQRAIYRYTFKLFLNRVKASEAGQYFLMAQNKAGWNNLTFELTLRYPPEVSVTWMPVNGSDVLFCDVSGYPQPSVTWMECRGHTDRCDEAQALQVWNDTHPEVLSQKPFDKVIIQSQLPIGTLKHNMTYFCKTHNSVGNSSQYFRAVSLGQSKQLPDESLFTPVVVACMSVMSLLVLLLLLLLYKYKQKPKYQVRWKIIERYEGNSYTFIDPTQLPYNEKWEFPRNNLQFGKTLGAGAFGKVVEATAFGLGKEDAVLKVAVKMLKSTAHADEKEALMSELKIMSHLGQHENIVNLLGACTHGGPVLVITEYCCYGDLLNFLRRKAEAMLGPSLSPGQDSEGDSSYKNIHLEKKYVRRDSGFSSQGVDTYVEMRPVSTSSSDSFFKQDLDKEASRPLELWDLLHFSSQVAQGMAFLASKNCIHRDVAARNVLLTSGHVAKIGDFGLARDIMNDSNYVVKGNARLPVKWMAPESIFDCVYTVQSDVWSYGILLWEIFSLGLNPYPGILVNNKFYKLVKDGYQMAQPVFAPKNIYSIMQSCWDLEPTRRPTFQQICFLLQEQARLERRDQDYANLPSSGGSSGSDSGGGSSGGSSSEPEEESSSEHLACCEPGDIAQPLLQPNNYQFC
Assay: In vivo pharmacodynamic model: CSF-1-induced splenic c-fos mRNA
Method: Eight hours later, mice were administered saline or 0.8 μg recombinant mouse CSF-1 (Cell Biosciences Inc, Norwood, Mass.) via the tail vein. Fifteen minutes after the tail vein injection, mice were sacrificed and spleens were isolated and snap frozen on dry ice. The frozen tissue was homogenized in 1 ml of Trizol (Invitrogen) per 50 mg of tissue, and RNA was purified according to the Trizol instructions and treated with 6.8 Kunitz units of RNase-free DNase (Qiagen, Valencia, Calif.) to degrade contaminating genomic DNA. The RNA was purified further using RNeasy columns (Qiagen). RT-PCR was performed in 25 μL reaction volumes using Reverse Transciptase qPCR Master Mix (Eurogentec) and approximately 50 ng RNA. Applied Biosystems, Inc., (Foster City, Calif.) was the source for the primer probe set for mouse c-fos mRNA (part# Mm00487425) and 18S rRNA (part# 4333760F). Amplification and detection were performed using the ABI Prism 7000 Sequence Detector system. Standard curves were created for c-fos mRNA and for 18s rRNA using RNA isolated from a vehicle-treated, CSF-1-induced mouse and used to calculate relative expression levels in all other samples. c-fos mRNA values were normalized to 18S rRNA content. Averaged, normalized c-fos content in the saline (no CSF-1) group was assigned a value of one and all other groups were expressed as “fold-induced”.

ED50 of splenic c-fos mRNA induction (intravenous recombinant CSF-1): ca. 0.8 μg/mouse | induction of splenic c-fos mRNA (intravenous recombinant CSF-1, within fifteen minutes): 10- to 50 fold
B1: CSF-1: recombinant mouse CSF-1 (Cell Biosciences Inc), given via the tail vein as challenge (protein, UniProt P07141 33-552, looked up)
Macrophage colony-stimulating …: KEVSEHCSHMIGNGHLKVLQQLIDSQMETSCQIAFEFVDQEQLDDPVCYLKKAFFLVQDIIDETMRFKDNTPNANATERLQELSNNLNSCFTKDYEEQNKACVRTFHETPLQLLEKIKNFFNETKNLLEKDWNIFTKNCNNSFAKCSSRDVVTKPDCNCLYPKATPSSDPASASPHQPPAPSMAPLAGLAWDDSQRTEGSSLLPSELPLRIEDPGSAKQRPPRSTCQTLESTEQPNHGDRLTEDSQPHPSAGGPVPGVEDILESSLGTNWVLEEASGEASEGFLTQEAKFSPSTPVGGSIQAETDRPRALSASPFPKSTEDQKPVDITDRPLTEVNPMRPIGQTQNNTPEKTDGTSTLREDHQEPGSPHIATPNPQRVSNSATPVAQLLLPKSHSWGIVLPLGELEGKRSTRDRRSPAELEGGSASEGAARPVARFNSIPLTDTGHVEQHEGSSDPQIPESVFHLLVPGIILVLLTVGGLLFYKWKWRSHRDPQTLDSSVGRPEDSSLTQDEDRQVELPV
